Experimental data from ChEMBL document CHEMBL1221387, “Prenylflavonoids from Glycyrrhiza uralensis and their protein tyrosine phosphatase-1B inhibitory activities” (Bioorg Med Chem Lett, 2010).

What was measured:
[1] = substrate: COc1c(CC=C(C)C)c(O)cc(O)c1-c1oc2cc(O)ccc2c1C; conditions: Homo sapiens; 10 uM
Description: Competitive inhibition of human recombinant PTP1B at 10 uM by Lineweaver-Burke plot analysis

[2] = substrate: COc1c(CC=C(C)C)c(O)cc(O)c1-c1oc2cc(O)ccc2c1C; conditions: Homo sapiens; 20 uM
Description: Competitive inhibition of human recombinant PTP1B at 20 uM by Lineweaver-Burke plot analysis

[3] = substrate: COc1c(CC=C(C)C)c(O)cc(O)c1-c1oc2cc(O)ccc2c1C; conditions: Homo sapiens; 30 uM
Description: Competitive inhibition of human recombinant PTP1B at 30 uM by Lineweaver-Burke plot analysis

B1: Tyrosine-protein phosphatase non-receptor type 1 (Homo sapiens), P18031 (protein)
chain: MEMEKEFEQIDKSGSWAAIYQDIRHEASDFPCRVAKLPKNKNRNRYRDVSPFDHSRIKLHQEDNDYINASLIKMEEAQRSYILTQGPLPNTCGHFWEMVWEQKSRGVVMLNRVMEKGSLKCAQYWPQKEEKEMIFEDTNLKLTLISEDIKSYYTVRQLELENLTTQETREILHFHYTTWPDFGVPESPASFLNFLFKVRESGSLSPEHGPVVVHCSAGIGRSGTFCLADTCLLLMDKRKDPSSVDIKKVLLEMRKFRMGLIQTADQLRFSYLAVIEGAKFIMGDSSVQDQWKELSHEDLEPPPEHIPPPPRPPKRILEPHNGKCREFFPNHQWVKEETQEDKDCPIKEEKGSPLNAAPYGIESMSQDTEVRSRVVGGSLRGAQAASPAKGEPSLPEKDEDHALSYWKPFLVNMCVATVLTAGAYLCYRFLFNSNT
- Km [1]: 3.5 µM
- Km [2]: 4.2 µM
- Km [3]: 5.5 µM
